Assay results taken from article PMC5149108.

Experiments:
Assay in all cases: fluorescence anisotropy
A1-LCD = A1-LCD (UniProt P09651 186-251+304-372, internal_change)
A1-FL (hnRNPA1) = A1-FL (hnRNPA1) (UniProt P09651 1-251+304-372, internal_change)
A1-RRM = A1-RRM (UniProt P09651 14-184)

Measured: binding result

B1: fl-RNA44 (ssRNA)
RNA: GGGCCCCCGGGUACCGAGCUGCUAAUCAAAACAAAACAAAAGCU
binds: all assays above
